# Positions count from the first letter of the chain named. Names and notes keep the numbering of the source. Read-outs that look alike come from different tables or passages of the source.
# B1: FL α1AT Pitts C232S (other)
# chain: SDPQGDAAQKTDTSHHDQDHPTFNKITPNLAEFAFSLYRQLAHQSNSTNIFFSPVSIATAFAMLSLGTKADTHDEILEGLNFNLTEIPEAQIHEGFQELLRTLNQPDSQLQLTTGNGLFLSEGLKLVDKFLEDVKKLYHSEAFTVNFGDTEEAKKQINDYVEKGTQGKIVDLVKELDRDTVFALVNYIFFKGKWERPFEVKDTEEEDFHVDQVTTVKVPMMKRLGMFNIQHSKKLSSWVLLMKYLGNATAIFFLPDEGKLQHLENELTHDIITKFLENEDRRSASLHLPKLSITGTYDLKSVLGQLGITKVFSNGADLSGVTEEAPLKLSKAVHKAVLTIDEKGTEAAGAMFLEAIPRSIPPEVKFNKPFVFLMIEQNTKSPLFMGKVVNPTQK
# notes: Serpin; E. coli, SUMO tag removed; also called α1-antitrypsin Pittsburgh
# B2: FL α1AT Pitts C232S P2KP1′K (other)
# chain: B1 chain with P357K, S359K
# notes: E. coli, SUMO tag removed; also called P2KP1′K α1AT; P2KP1′K mutant of α1AT Pitts
# B3: A22 WT PCI (other)
# chain: APSSRRDFTFDLYRALASAAPSQNIFFSPVSISMSLAMLSLGAGSSTKMQILEGLGLNLQKSSEKELHRGFQQLLQELNQPRDGFQLSLGNALFTDLVVDLQDTFVSAMKTLYLADTFPTNFRDSAGAMKQINDYVAKQTKGKIVDLLKNLDSNAVVIMVNYIFFKAKWETSFNHKGTQEQDFYVTSETVVRVPMMSREDQYHYLLDRNLSCRVVGVPYQGNATALFILPSEGKMQQVENGLSEKTLRKWLKMFKKRQLELYLPKFSIEGSYQLEKVLPSLGISNVFTSHADLSGISNHSNIQVSEMVHKAVVEVDESGTRAAAATGTIFTFRSARLNSQRLVFNRPFLMFIVDNNILFLGKVNRP
# notes: Serpin; E. coli, SUMO tag removed; also called A22 wild-type (WT) PCI
# B4: A22 P1′K PCI (other)
# chain: B3 chain with S334K
# notes: As A22 WT PCI
# B5: A22 P2KP1′K PCI (other)
# chain: B3 chain with F332K, S334K
# notes: As A22 WT PCI
# Assays:
# [1] = target: T1, activated Protein C (APC) (human, UniProt P04070 43-197; P04070 212-461); experiment: ratio of rate constants, APC over fXa
# T1 construct: also called human plasma APC
# T1 sequence (P04070 43-197, chain 1 of 2): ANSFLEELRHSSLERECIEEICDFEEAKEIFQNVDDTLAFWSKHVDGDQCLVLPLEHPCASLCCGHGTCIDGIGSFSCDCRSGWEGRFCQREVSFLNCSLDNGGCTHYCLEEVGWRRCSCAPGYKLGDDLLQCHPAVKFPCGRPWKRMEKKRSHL
# T1 sequence (P04070 212-461, chain 2 of 2): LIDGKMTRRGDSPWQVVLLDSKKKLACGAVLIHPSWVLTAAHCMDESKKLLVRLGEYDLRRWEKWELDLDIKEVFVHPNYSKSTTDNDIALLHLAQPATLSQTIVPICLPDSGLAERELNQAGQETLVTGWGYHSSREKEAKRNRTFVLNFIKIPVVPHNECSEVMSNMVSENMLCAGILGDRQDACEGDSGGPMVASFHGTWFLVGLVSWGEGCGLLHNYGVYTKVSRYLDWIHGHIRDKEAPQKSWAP
# Experimental: (§1) The inhibition of APC was reduced but still considerable, especially for the variants of α₁AT and the PCI variants in the presence of heparin. However, the specificity of PCI and α₁AT Pitts is not limited to thrombin and APC. […] In order not to inhibit coagulation, our variants also need to be specific for APC over fXa. We therefore also determined the rate constants of inhibition of PCI and α₁AT and their variants for fXa (Table 3). Rate constants were measured under pseudo-first-order conditions using an excess of serpin over protease. Serpin and protease were incubated together for varying lengths of time and the residual activity determined by adding an excess of chromogenic substrate (S2222) for the protease. Plots of residual protease activity over time gave the observed rate constant kobs. The second-order rate constant, k₂, is the slope of the plot of kobs versus serpin concentration (fitted using a linear regression model). Standard errors of the slope are shown (Table 3).
# [2] = target: T1, activated Protein C (APC); experiment: ratio of rate constants, APC over fXIa
# Experimental: APC inhibition is shown for comparison (from Table 1). Standard errors are shown.
# In addition we wanted to determine whether FL α₁AT Pitts C232S P2KP1′K affected the intrinsic (contact activation) pathway. Second-order rate constants of inhibition of fXIa by FL α₁AT Pitts C232S and the P2KP1′K variant were measured under pseudo first-order conditions using an excess of serpin over protease. Serpin and protease were incubated together for varying lengths of time and the residual activity determined by adding an excess of chromogenic substrate for the protease (S2366). Plots of residual protease activity over time gave the observed rate constant kobs. The second-order rate constant, k₂, is the slope of the plot of kobs versus serpin concentration (fitted using a linear regression model). Standard errors of the slope are given.
# [3] = target: T1, activated Protein C (APC); experiment: ratio of rate constants, APC over thrombin
# Experimental: (§2) Rate constants of thrombin and APC inhibition were measured under pseudo-first-order conditions using an excess of serpin over protease (Table 1). Serpin and protease were incubated together for varying lengths of time and the residual activity was determined by adding an excess of chromogenic substrate for the protease (S2238 for thrombin and […] for APC). Residual protease activity was then measured by following the absorbance at 405 nm. Plots of residual protease activity over time gave the observed rate constant kobs. The second-order rate constant, ₖ₂, is the slope of the plot of kobs versus serpin concentration (fitted using a linear regression model). Standard errors of the slope are shown.
# [4] = target: T1, activated Protein C (APC); experiment: ratio of rate constants, APC over fXa (repeated from Table 3)
# Experimental: as §1
# thrombin [5] = target: T2, thrombin (UniProt P00734 328-622); experiment: pseudo-first-order inhibition kinetics (repeated from Table 1)
# Experimental: as §2
# [6] = target: T1, activated Protein C (APC); experiment: as above
# Experimental: as §2
# [7] = target: T1, activated Protein C (APC); experiment: ratio of rate constants, APC over thrombin (repeated from Table 1)
# Experimental: as §2
# thrombin [8] = target: T2, thrombin; experiment: pseudo-first-order inhibition kinetics, residual chromogenic activity
# Experimental: as §2
# [9] = target: T1, activated Protein C (APC); experiment: as above
# Experimental: as §2
# fXa = target: T3, fXa (UniProt P00742 41-179; P00742 235-488); experiment: pseudo-first-order inhibition kinetics, residual chromogenic activity (S2222)
# T3 construct: also called factor Xa
# T3 sequence (P00742 41-179 limits assumed, form in doubt, chain 1 of 2): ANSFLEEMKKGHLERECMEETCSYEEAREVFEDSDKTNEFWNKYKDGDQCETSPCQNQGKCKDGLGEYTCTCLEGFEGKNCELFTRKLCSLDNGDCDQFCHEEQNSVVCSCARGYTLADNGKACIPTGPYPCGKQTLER
# T3 sequence (P00742 235-488 limits assumed, form in doubt, chain 2 of 2): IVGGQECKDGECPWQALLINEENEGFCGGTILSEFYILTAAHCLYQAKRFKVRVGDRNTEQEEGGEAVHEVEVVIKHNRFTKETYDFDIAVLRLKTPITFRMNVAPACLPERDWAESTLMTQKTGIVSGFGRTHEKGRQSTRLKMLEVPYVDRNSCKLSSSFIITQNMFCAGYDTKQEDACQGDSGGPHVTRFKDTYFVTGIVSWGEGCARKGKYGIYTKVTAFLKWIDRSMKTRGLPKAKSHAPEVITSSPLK
# Experimental: as §1
# thrombin [10] = target: T2, thrombin; experiment: pseudo-first-order inhibition kinetics, residual chromogenic activity (S2238)
# Experimental: as §2
# [11] = target: T1, activated Protein C (APC); experiment: ratio of rate constants, APC over fXIa; remark: listed apart in the source
# Experimental: as §2
# Second-order rate constants of inhibition for inhibition of fXIa by PCI and the P2KP1′K variant were measured under pseudo-first-order conditions using an excess of serpin over protease. Serpin and protease were incubated together for varying lengths of time and the residual activity determined by adding an excess of chromogenic substrate for the protease (S2366). Plots of residual protease activity over time gave the observed rate constant kobs. The second-order rate constant, k₂, is the slope of the plot of kobs versus serpin concentration (fitted using a linear regression model).
# [12] = target: T1, activated Protein C (APC); experiment: ratio of rate constants with heparin, APC over thrombin
# Experimental: (§3) PCI, unlike α₁AT, binds heparin and this binding considerably increases its inhibition of thrombin and APC (Pratt & Church, 1992). We therefore tested the inhibition of thrombin and APC by the P1′K and P2KP1′K PCI mutants in the presence of heparin to see if the swap in specificity seen in Table 1 would persist. Rate constants were measured under pseudo-first-order conditions using an excess of PCI over protease. PCI was preincubated with an equimolar concentration of unfractionated heparin for 30 min prior to the experiment. PCI:heparin and protease were incubated together for varying lengths of time and the residual activity after certain timepoints determined by adding an excess of chromogenic substrate for the protease mixed with polybrene to bind the heparin. Plots of residual protease activity over time gave the observed rate constant kobs. The second-order rate constant, k₂, is the slope of the plot of kobs versus serpin concentration (fitted using a linear regression model). Standard errors of the slope are shown. […] This might be due to the substrate pathway or complex dissociation. As for the inhibition in the absence of heparin, the P1′K and P2KP1′K mutants of PCI, unlike the WT protein were specific for APC over thrombin (Table 2).
# [13] = target: T1, activated Protein C (APC); experiment: ratio of rate constants, APC over thrombin (repeated from Table 1); remark: listed apart in the source
# thrombin [14] = target: T2, thrombin; experiment: pseudo-first-order inhibition kinetics, residual chromogenic activity, no heparin
# Experimental: as §2
# [15] = target: T1, activated Protein C (APC); experiment: as above
# Experimental: as §2
# thrombin [16] = target: T2, thrombin; experiment: pseudo-first-order inhibition kinetics, residual chromogenic activity, with equimolar unfractionated heparin
# Experimental: as §3
# [17] = target: T1, activated Protein C (APC); experiment: as above
# Experimental: as §3
Binder,fold inhibition APC/fXa [1] [fold],inhibition of APC/fXIa [2] [fold],fold inhibition APC/thrombin [3] [fold],inhibition of APC/fXa [4] [fold],second-order rate constant of inhibition (thrombin [5]) [M⁻¹ s⁻¹],second-order rate constant of inhibition [6] [M⁻¹ s⁻¹],inhibition of APC/thrombin [7] [fold],second-order rate constant of inhibition (thrombin [8]) [M⁻¹ s⁻¹],second-order rate constant of inhibition [9] [M⁻¹ s⁻¹],second-order rate constant of inhibition (fXa) [M⁻¹ s⁻¹],binding result (thrombin [10]),inhibition of APC/fXIa [11] [fold],fold inhibition APC/thrombin [12] [fold],inhibition of APC/thrombin [13] [fold],second-order rate constant of inhibition (thrombin [14]) [M⁻¹ s⁻¹],second-order rate constant of inhibition [15] [M⁻¹ s⁻¹],second-order rate constant of inhibition (thrombin [16]) [M⁻¹ s⁻¹],second-order rate constant of inhibition [17] [M⁻¹ s⁻¹]
B1,2.6,0.3,0.4,2.6,293000,108000,0.4,293000,108000,41300,–,–,–,–,–,–,–,–
B2,126,32.2,–,126,–,15100,–,–,15100,120,no binding (tested: 4 h),–,–,–,–,–,–,–
B3,0.07,–,0.02,–,28200,680,–,–,–,10300,–,0.08,0.4,0.02,28200,680,1.31e+06,564000
B4,1.7,–,40,–,–,–,–,–,–,520,–,–,18900,–,22,880,17,322000
B5,–,–,9.3,–,–,280,–,–,–,–,–,12.2,1330,9.3,–,280,–,146000

# From US20160311887A1 (CAMBRIDGE ENTERPRISE, published 2016)
